{"source": "patent US20240368565A1", "about": "“COMPLEMENTATION-BASED TAGS AND REPORTERS FOR DUAL-MODALITY LABELING” (Promega Corporation, priority 2023, published 2024)", "assay_in_all_cases": "biochemical", "type_in_all_cases": "binding", "key": {"[1]": {"target": "HaloTag[22-297](M2F + K140E)-12xGly/Ser-LgBiT-3xGly/Ser-6xHis (Rhodococcus rhodochrous, UniProt P0A3G2, A155T/A167V/A172T/A224E/C128F/C176G/D78G/E257K/H272N/K175M/K195N/L47V/L88M/N227D/S58T/T264A/Y273L/Y87F)", "details": "biotinylated peptide on streptavidin probes, PBST, 25° C."}, "LgBiT-6xHis": {"target": "LgBiT-6xHis (Oplophorus gracilirostris, UniProt Q9GV45, A31E/A60N/A81I/D135N/F58L/F95D/G42A/G62A/G78A/G94A/G98A/H120P/I103V/I117V/I134L/K70R/L176M/L54V/L73R/L99Q/M102E/N171T/P142E/Q151K/Q38E/Q45L/V71I/Y165I)"}, "[2]": {"target": "HaloTag[22-297](M2F + D53G + K140E)-12xGly/Ser-LgBiT-3xGly/Ser-6xHis (Rhodococcus rhodochrous, UniProt P0A3G2, A155T/A167V/A172T/A224E/C128F/C176G/D73G/D78G/E257K/H272N/K175M/K195N/L47V/L88M/N227D/S58T/T264A/Y273L/Y87F)"}, "[3]": {"details": "biotinylated peptide on streptavidin probes, PBST, 25° C."}}, "note": "Peptide text beside a SMILES is read from it. * marks the point of attachment. Biotin = O=C1N[C@H]2[C@H](CS[C@H]2CCCCC(=O)*)N1", "data": [{"molecule": "CC[C@H](C)[C@H](NC(=O)[C@H](CCC(=O)O)NC(=O)CCCC[C@@H]1SC[C@@H]2NC(=O)N[C@@H]21)C(=O)NCC(=O)N[C@H](C(=O)NCC(=O)N[C@@H](Cc1ccccc1)C(=O)N1CCC[C@H]1C(=O)N[C@@H](Cc1ccccc1)C(=O)N[C@@H](CCCNC(=N)N)C(=O)N1CCC[C@H]1C(=O)N[C@@H](Cc1c[nH]cn1)C(=O)N[C@@H](Cc1ccc(O)cc1)C(=O)N[C@H](C(=O)N[C@@H](CCCCN)C(=O)N[C@H](C(=O)N[C@@H](CC(C)C)C(=O)NCC(=O)NCC(=O)NCC(=O)N[C@@H](CO)C(=O)NCC(=O)N[C@H](C(=O)N[C@@H](CO)C(=O)N[C@H](C(=O)N[C@@H](CO)C(=O)NCC(=O)N[C@@H](Cc1c[nH]c2ccccc12)C(=O)N[C@@H](CCCNC(=N)N)C(=O)N[C@@H](CC(C)C)C(=O)N[C@@H](Cc1ccccc1)C(=O)N[C@@H](CCCCN)C(=O)N[C@@H](CCCCN)C(=O)N[C@H](C(=O)N[C@@H](CO)C(=O)O)[C@@H](C)CC)C(C)C)C(C)C)C(C)C)C(C)C)[C@@H](C)O", "note": "[HaloTag[3-19](D9R + E14K)-4xGS-VSHiBiT] (Biotin-EIGTGFPFRPHYVKVLGGGSGVSVSGWRLFKKIS-OH)", "values": [{"measurement": "Kd", "setting": "[1]", "result": 0.111, "unit": "nM"}]}, {"molecule": "CC[C@H](C)[C@H](NC(=O)[C@H](CCC(=O)O)NC(=O)CCCC[C@@H]1SC[C@@H]2NC(=O)N[C@@H]21)C(=O)NCC(=O)N[C@H](C(=O)NCC(=O)N[C@@H](Cc1ccccc1)C(=O)N1CCC[C@H]1C(=O)N[C@@H](Cc1ccccc1)C(=O)N[C@@H](CCCNC(=N)N)C(=O)N1CCC[C@H]1C(=O)N[C@@H](Cc1c[nH]cn1)C(=O)N[C@@H](Cc1ccc(O)cc1)C(=O)N[C@H](C(=O)N[C@@H](CCC(=O)O)C(=O)N[C@H](C(=O)N[C@@H](CC(C)C)C(=O)NCC(=O)NCC(=O)NCC(=O)N[C@@H](CO)C(=O)NCC(=O)N[C@H](C(=O)N[C@@H](CO)C(=O)N[C@H](C(=O)N[C@@H](CO)C(=O)NCC(=O)N[C@@H](Cc1c[nH]c2ccccc12)C(=O)N[C@@H](CCCNC(=N)N)C(=O)N[C@@H](CC(C)C)C(=O)N[C@@H](Cc1ccccc1)C(=O)N[C@@H](CCCCN)C(=O)N[C@@H](CCCCN)C(=O)N[C@H](C(=O)N[C@@H](CO)C(=O)O)[C@@H](C)CC)C(C)C)C(C)C)C(C)C)C(C)C)[C@@H](C)O", "note": "[HaloTag[3-19](D9R)-4xGly/Ser-VSHiBiT] (Biotin-EIGTGFPFRPHYVEVLGGGSGVSVSGWRLFKKIS-OH)", "values": [{"measurement": "Kd", "setting": "[1]", "result": 0.126, "unit": "nM"}]}, {"molecule": "CC[C@H](C)[C@H](NC(=O)[C@H](CCCCN)NC(=O)[C@H](CCCCN)NC(=O)[C@H](Cc1ccccc1)NC(=O)[C@H](CC(C)C)NC(=O)[C@H](CCCNC(=N)N)NC(=O)[C@H](Cc1c[nH]c2ccccc12)NC(=O)CNC(=O)[C@H](CO)NC(=O)[C@@H](NC(=O)[C@H](CO)NC(=O)[C@@H](NC(=O)CNC(=O)[C@H](CO)NC(=O)CNC(=O)CNC(=O)CNC(=O)[C@H](CC(C)C)NC(=O)[C@@H](NC(=O)[C@H](CCC(=O)O)NC(=O)[C@@H](NC(=O)[C@H](Cc1ccc(O)cc1)NC(=O)[C@H](Cc1c[nH]cn1)NC(=O)[C@@H]1CCCN1C(=O)[C@H](CC(=O)O)NC(=O)[C@H](Cc1ccccc1)NC(=O)[C@@H]1CCCN1C(=O)[C@H](Cc1ccccc1)NC(=O)CNC(=O)[C@@H](NC(=O)[C@H](CCCCN)NC(=O)[C@H](CCCNC(=N)N)NC(=O)[C@H](CCC(=O)O)NC(=O)CCCC[C@@H]1SC[C@@H]2NC(=O)N[C@@H]21)[C@@H](C)O)C(C)C)C(C)C)C(C)C)C(C)C)C(=O)N[C@@H](CO)C(=O)O", "note": "[HaloTag[3-19](I2R + G3K)-4xGS-VSHiBiT] (Biotin-ERKTGFPFDPHYVEVLGGGSGVSVSGWRLFKKIS-OH)", "values": [{"measurement": "Kd", "setting": "LgBiT-6xHis", "result": 0.323, "unit": "nM"}]}, {"molecule": "CC[C@H](C)[C@H](NC(=O)[C@H](CCCCN)NC(=O)[C@H](CCCCN)NC(=O)[C@H](Cc1ccccc1)NC(=O)[C@H](CC(C)C)NC(=O)[C@H](CCCNC(=N)N)NC(=O)[C@H](Cc1c[nH]c2ccccc12)NC(=O)CNC(=O)[C@H](CO)NC(=O)[C@@H](NC(=O)[C@H](CO)NC(=O)[C@@H](NC(=O)CNC(=O)[C@H](CO)NC(=O)CNC(=O)CNC(=O)CNC(=O)[C@H](CC(C)C)NC(=O)[C@@H](NC(=O)[C@H](CCC(=O)O)NC(=O)[C@@H](NC(=O)[C@H](Cc1ccc(O)cc1)NC(=O)[C@H](Cc1c[nH]cn1)NC(=O)[C@@H]1CCCN1C(=O)[C@H](CC(=O)O)NC(=O)[C@H](Cc1ccccc1)NC(=O)[C@@H]1CCCN1C(=O)[C@H](Cc1ccccc1)NC(=O)[C@H](CCCNC(=N)N)NC(=O)[C@@H](NC(=O)CNC(=O)[C@H](CCCNC(=N)N)NC(=O)[C@H](CCC(=O)O)NC(=O)CCCC[C@@H]1SC[C@@H]2NC(=O)N[C@@H]21)[C@@H](C)O)C(C)C)C(C)C)C(C)C)C(C)C)C(=O)N[C@@H](CO)C(=O)O", "note": "[HaloTag[3-19](I2R + G5R)-4xGS-VSHiBiT] (Biotin-ERGTRFPFDPHYVEVLGGGSGVSVSGWRLFKKIS-OH)", "values": [{"measurement": "Kd", "setting": "LgBiT-6xHis", "result": 0.11, "unit": "nM"}]}, {"molecule": "CC[C@H](C)[C@H](NC(=O)[C@H](CCCCN)NC(=O)[C@H](CCCCN)NC(=O)[C@H](Cc1ccccc1)NC(=O)[C@H](CC(C)C)NC(=O)[C@H](CCCNC(=N)N)NC(=O)[C@H](Cc1c[nH]c2ccccc12)NC(=O)CNC(=O)[C@H](CO)NC(=O)[C@@H](NC(=O)CNC(=O)[C@H](CO)NC(=O)CNC(=O)CNC(=O)CNC(=O)[C@H](CC(C)C)NC(=O)[C@@H](NC(=O)[C@H](CCC(=O)O)NC(=O)[C@@H](NC(=O)[C@H](Cc1ccc(O)cc1)NC(=O)[C@H](Cc1c[nH]cn1)NC(=O)[C@@H]1CCCN1C(=O)[C@H](CC(=O)O)NC(=O)[C@H](Cc1ccccc1)NC(=O)[C@@H]1CCCN1C(=O)[C@H](Cc1ccccc1)NC(=O)CNC(=O)[C@@H](NC(=O)CNC(=O)[C@H](CCCNC(=N)N)NC(=O)[C@H](CCC(=O)O)NC(=O)CCCC[C@@H]1SC[C@@H]2NC(=O)N[C@@H]21)[C@@H](C)O)C(C)C)C(C)C)C(C)C)C(=O)N[C@@H](CO)C(=O)O", "note": "[HaloTag[3-19](I2R)-4xGly/Ser-HiBiT] (Biotin-ERGTGFPFDPHYVEVLGGGSGVSGWRLFKKIS-OH)", "values": [{"measurement": "Kd", "setting": "[2]", "result": 0.323, "unit": "nM"}]}, {"molecule": "CC[C@H](C)[C@H](NC(=O)[C@H](CCCCN)NC(=O)[C@H](CCCCN)NC(=O)[C@H](Cc1ccccc1)NC(=O)[C@H](CC(C)C)NC(=O)[C@H](CCCNC(=N)N)NC(=O)[C@H](Cc1c[nH]c2ccccc12)NC(=O)CNC(=O)[C@H](CO)NC(=O)[C@@H](NC(=O)[C@H](CO)NC(=O)[C@@H](NC(=O)CNC(=O)[C@H](CC(C)C)NC(=O)[C@@H](NC(=O)[C@H](CCC(=O)O)NC(=O)[C@@H](NC(=O)[C@H](Cc1ccc(O)cc1)NC(=O)[C@H](Cc1c[nH]cn1)NC(=O)[C@@H]1CCCN1C(=O)[C@H](CC(=O)O)NC(=O)[C@H](Cc1ccccc1)NC(=O)[C@@H]1CCCN1C(=O)[C@H](Cc1ccccc1)NC(=O)CNC(=O)[C@@H](NC(=O)CNC(=O)[C@H](CCCNC(=N)N)NC(=O)[C@H](CCC(=O)O)NC(=O)CCCC[C@@H]1SC[C@@H]2NC(=O)N[C@@H]21)[C@@H](C)O)C(C)C)C(C)C)C(C)C)C(C)C)C(=O)N[C@@H](CO)C(=O)O", "note": "[HaloTag[3-19](I2R)-VSHiBiT] (Biotin-ERGTGFPFDPHYVEVLGVSVSGWRLFKKIS-OH)", "values": [{"measurement": "Kd", "setting": "[2]", "result": 0.713, "unit": "nM"}]}, {"molecule": "EIGTGFPFDPHYVEVRGGGSGVSVSGWRLFKKIS [HaloTag[3-19](L16R)-4xGly/Ser-VSHiBiT]", "values": [{"measurement": "Koff", "setting": "[1]", "result": "NA (dissociation that is too slow for the instrument to measure (limit 10^6 l/s))"}, {"measurement": "Kon", "setting": "[1]", "result": 77900, "unit": "M⁻¹ s⁻¹"}]}, {"molecule": "EIGTGFPFDPHYVKVLGGGSGVSVSGWRLFKKIS [HaloTag[3-19](E14K)-4xGly/Ser-VSHiBiT]", "values": [{"measurement": "Koff", "setting": "[1]", "result": "NA (dissociation that is too slow for the instrument to measure (limit 10^6 l/s))"}, {"measurement": "Kon", "setting": "[1]", "result": 108000, "unit": "M⁻¹ s⁻¹"}]}, {"molecule": "EIGTGFPFRPHYVEVRGGGSGVSVSGWRLFKKIS [HaloTag[3-19](D9R + L16R)-4xGS-VSHiBiT]", "values": [{"measurement": "Koff", "setting": "LgBiT-6xHis; [3]", "result": "NA (dissociation that is too slow for the instrument to measure (limit 10^6 l/s))"}, {"measurement": "Kon", "setting": "LgBiT-6xHis; [3]", "result": 64800, "unit": "M⁻¹ s⁻¹"}, {"measurement": "Koff", "setting": "[1]", "result": "NA (dissociation that is too slow for the instrument to measure (limit 10^6 l/s))"}, {"measurement": "Kon", "setting": "[1]", "result": 134000, "unit": "M⁻¹ s⁻¹"}]}, {"molecule": "EIKTGFPFDPHYVEVRGGGSGVSVSGWRLFKKIS [HaloTag[3-19](G3K + L16R)-4xGS-VSHiBiT]", "values": [{"measurement": "Koff", "setting": "[1]", "result": "NA (dissociation that is too slow for the instrument to measure (limit 10^6 l/s))"}, {"measurement": "Kon", "setting": "[1]", "result": 97100, "unit": "M⁻¹ s⁻¹"}]}, {"molecule": "EIKTGFPFDPHYVKVLGGGSGVSVSGWRLFKKIS [HaloTag[3-19](G3K + E14K)-4xGS-VSHiBiT]", "values": [{"measurement": "Koff", "setting": "[1]", "result": "NA (dissociation that is too slow for the instrument to measure (limit 10^6 l/s))"}, {"measurement": "Kon", "setting": "[1]", "result": 128000, "unit": "M⁻¹ s⁻¹"}]}, {"molecule": "ERGTGFPFDPHYVEVLGGGSGVSVSGWRLFRRIS", "values": [{"measurement": "Koff", "setting": "[2]; [3]", "result": "NA (dissociation that is too slow for the instrument to measure (limit 10^6 l/s))"}, {"measurement": "Kon", "setting": "[2]; [3]", "result": 71400, "unit": "M⁻¹ s⁻¹"}]}, {"molecule": "ERGTGFPFDPHYVEVLRGGSGVSVSGWRLFKKIS [HaloTag[3-19](I2R + G17R)-4xGS-VSHiBiT]", "values": [{"measurement": "Koff", "setting": "[1]", "result": "NA (dissociation that is too slow for the instrument to measure (limit 10^6 l/s))"}, {"measurement": "Kon", "setting": "[1]", "result": 93300, "unit": "M⁻¹ s⁻¹"}]}, {"molecule": "ERGTGFPFRPHYVEVLGGGSGVSVSGWRLFKKIS [HaloTag[3-19](I2R + D9R)-4xGS-VSHiBiT]", "values": [{"measurement": "Koff", "setting": "[1]", "result": "NA (dissociation that is too slow for the instrument to measure (limit 10^6 l/s))"}, {"measurement": "Kon", "setting": "[1]", "result": 128000, "unit": "M⁻¹ s⁻¹"}]}]}
